The experiment has as its target T1, BMP9 (UniProt Q9UK05 320-429).
T1 construct: Ligand injected over the captured receptor protein
T1 sequence (looked up): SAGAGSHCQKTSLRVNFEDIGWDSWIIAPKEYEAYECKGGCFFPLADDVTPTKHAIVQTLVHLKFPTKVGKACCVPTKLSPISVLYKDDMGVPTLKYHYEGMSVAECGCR
In words: Biacore SPR; protein captured by anti-Fc antibody, ligand injected. The procedure:
These protein complexes were independently captured in the system using an anti-Fc antibody. Ligands were injected and allowed to flow over the captured receptor protein. Results are summarized in the table below, in which ligand off-rates (kd) most indicative of effective ligand traps are denoted by bold text.

The source of these data is patent US20200071382A1 (published 2020).

Where only a bound is given, the exact number is not on record here.

B1: ENG(26-346)-Fc:Fc monomeric complex (Fc fusion)
chain: ETVHCDLQPVGPERDEVTYTTSQVSKGCVAQAPNAILEVHVLFLEFPTGPSQLELTLQASKQNGTWPREVLLVLSVNSSVFLHLQALGIPLHLAYNSSLVTFQEPPGVNTTELPSFPKTQILEWAAERGPITSAAELNDPQSILLRLGQAQGSLSFCMLEASQDMGRTLEWRPRTPALVRGCHLEGVAGHKEAHILRVLPGHSAGPRTVTVKVELSCAPGDLDAVLILQGPPYVSWLIDANHNMQIWTTGEYSFKIFPEKNIRGFKLPDTPQGLLGEARMLNASIVASFVELPLASIVSLHASSCGGRLQTSPAPIQTTPPTGGGTHTCPPCPAPELLGGPSVFLFPPKPKDTLMISRTPEVTCVVVDVSHEDPEVKFNWYVDGVEVHNAKTKPREEQYNSTYRVVSVLTVLHQDWLNGKEYKCKVSNKALPAPIEKTISKAKGQPREPQVYTLPPSRKEMTKNQVSLTCLVKGFYPSDIAVEWESNGQPENNYKTTPPVLKSDGSFFLYSKLTVDKSRWQQGNVFSCSVMHEALHNHYTQKSLSLSPGK
What is called Kd is a measure of binding affinity in units of concentration. The low end stands for tighter binding, the high end for weaker binding. Molecule B1 gave an equilibrium dissociation constant (Kd) of over 36 nM.
